Assays:
[1] = molecular target: Ig-CD95L (extracellular region of CD95L fused to a dimerization domain (Ig) of the LIF receptor gp190) (UniProt P48023); experiment: SEC; gel filtration analysis, unpublished data
[2] = molecular target: the molecule itself; experiment: SEC; size exclusion on S-200-HR Sephacryl columns; fractions harvested and cl-CD95L dosed by ELISA

Chain of Ig-CD95L (extracellular region of CD95L fused to a dimerization domain (Ig) of the LIF receptor gp190) (from UniProt P48023 105-281) (ligand) (P48023 whole entry, the tested form may be a part): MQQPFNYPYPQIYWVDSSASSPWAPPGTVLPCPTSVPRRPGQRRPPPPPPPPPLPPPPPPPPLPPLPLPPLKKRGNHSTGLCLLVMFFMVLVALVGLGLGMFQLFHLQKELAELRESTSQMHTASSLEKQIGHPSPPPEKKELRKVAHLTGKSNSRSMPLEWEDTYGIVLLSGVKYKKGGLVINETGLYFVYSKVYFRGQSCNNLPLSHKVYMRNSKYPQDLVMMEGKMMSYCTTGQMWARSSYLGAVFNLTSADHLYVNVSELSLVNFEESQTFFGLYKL

| stoichiometry N [1] | Molecule | stoichiometry N [2] |
| --- | --- | --- |
| 12 | Ig-CD95L (extracellular region of CD95L fused to a dimerization domain (Ig) of the LIF receptor gp190) (from UniProt P48023 105-281) (ligand) |  |
|  | metalloprotease-cleaved CD95L (ligand, UniProt P48023 127-281, looked up, In the functional row the CD95L is the soluble ligand in sera of SLE patients, not the 293-made preparation; also called cl-CD95L; naturally processed CD95L; source: 293 cells transfected with wild type CD95L cDNA; exosome-free supernatant, concentrated (10 kDa cut-off) and dialyzed against PBS) LEKQIGHPSPPPEKKELRKVAHLTGKSNSRSMPLEWEDTYGIVLLSGVKYKKGGLVINETGLYFVYSKVYFRGQSCNNLPLSHKVYMRNSKYPQDLVMMEGKMMSYCTTGQMWARSSYLGAVFNLTSADHLYVNVSELSLVNFEESQTFFGLYKL | 3 |

— paper PMC3119658, “The Naturally Processed CD95L Elicits a c-Yes/Calcium/PI3K-Driven Cell Migration Pathway” (PLoS Biology, 2011)
